The target of the experiment is Growth Factor Receptor-bound 2 (GRB2), endogenous in HEK cells (human (endogenous in HEK)) (UniProt P62993). In words: co-IP.
Growth Factor Receptor-bound 2 (GRB2), endogenous in HEK cells (human (endogenous in HEK)), sequence (P62993 whole entry): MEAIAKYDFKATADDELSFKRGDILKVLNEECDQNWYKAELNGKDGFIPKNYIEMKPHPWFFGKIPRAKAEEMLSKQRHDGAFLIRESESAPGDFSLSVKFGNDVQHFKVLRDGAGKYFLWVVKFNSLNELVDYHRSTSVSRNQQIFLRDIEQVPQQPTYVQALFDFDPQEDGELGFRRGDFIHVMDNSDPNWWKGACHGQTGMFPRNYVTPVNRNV

Consider “SWELL1^Δ91/+35 mutant, transiently expressed in HEK cells (natural protein)”, for which the densitometry ratio SWELL1^Δ91/+35/GRB2 in the GRB2 immunoprecipitate is 0.07.
